Laboratory results taken from the supplement of paper PMC6379048.

Key:
Test in all cases: Kd (EC50 corrected by depletion factor)
PINX1 = molecular target: T1, PINX1 (UniProt Q96BK5)
T1 sequence: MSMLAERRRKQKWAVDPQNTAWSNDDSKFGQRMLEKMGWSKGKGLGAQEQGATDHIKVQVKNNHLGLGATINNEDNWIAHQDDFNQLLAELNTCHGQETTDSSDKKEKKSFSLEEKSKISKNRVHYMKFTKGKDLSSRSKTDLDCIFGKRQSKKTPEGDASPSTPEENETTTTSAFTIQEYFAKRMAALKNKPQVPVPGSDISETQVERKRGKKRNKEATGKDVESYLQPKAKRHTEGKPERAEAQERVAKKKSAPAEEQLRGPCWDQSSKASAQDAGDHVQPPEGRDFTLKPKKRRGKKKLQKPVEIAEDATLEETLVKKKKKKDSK
Outline: (§1)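 HEK293-FT lysate (2.5 mg protein/well) was treated with free RNA oligos (0 nM to 30 μM) for 1 h at 4°C, then with the same oligos on NHS-Sepharose beads for 30 min at 4°C. Bound proteins were quantified by label-free LC-MS/MS relative to the control. EC50 came from a four-parameter log-logistic fit, and Kd is EC50 times a protein-dependent depletion factor.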

SRRM2 = SRRM2 (UniProt Q9UQ35)
Outline: as §1

TSNAX = molecular target: T2, TSNAX (UniProt Q99598)
T2 sequence: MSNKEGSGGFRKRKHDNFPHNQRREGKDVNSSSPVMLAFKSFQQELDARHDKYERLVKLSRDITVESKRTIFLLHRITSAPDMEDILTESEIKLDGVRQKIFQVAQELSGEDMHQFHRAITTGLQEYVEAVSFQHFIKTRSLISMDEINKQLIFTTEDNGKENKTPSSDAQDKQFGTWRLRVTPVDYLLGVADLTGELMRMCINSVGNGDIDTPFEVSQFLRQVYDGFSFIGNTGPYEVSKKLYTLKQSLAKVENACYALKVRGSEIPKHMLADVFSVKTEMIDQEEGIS
Outline: as §1

U2AF2 = U2AF2 (UniProt P26368)
Outline: as §1

IGF2BP1 = IGF2BP1 (UniProt Q9NZI8)
Outline: as §1

MRPL38 = MRPL38 (UniProt Q96DV4)
Outline: as §1

MRPL17 = MRPL17 (UniProt Q9NRX2)
Outline: as §1

RPS19 = RPS19 (UniProt P39019)
Outline: as §1

MRPL21 = MRPL21 (UniProt Q7Z2W9)
Outline: as §1

MRPS25 = MRPS25 (UniProt P82663)
Outline: as §1

MRPS28 = MRPS28 (UniProt Q9Y2Q9)
Outline: as §1

TRIM56 = molecular target: T3, TRIM56 (UniProt Q9BRZ2)
T3 sequence: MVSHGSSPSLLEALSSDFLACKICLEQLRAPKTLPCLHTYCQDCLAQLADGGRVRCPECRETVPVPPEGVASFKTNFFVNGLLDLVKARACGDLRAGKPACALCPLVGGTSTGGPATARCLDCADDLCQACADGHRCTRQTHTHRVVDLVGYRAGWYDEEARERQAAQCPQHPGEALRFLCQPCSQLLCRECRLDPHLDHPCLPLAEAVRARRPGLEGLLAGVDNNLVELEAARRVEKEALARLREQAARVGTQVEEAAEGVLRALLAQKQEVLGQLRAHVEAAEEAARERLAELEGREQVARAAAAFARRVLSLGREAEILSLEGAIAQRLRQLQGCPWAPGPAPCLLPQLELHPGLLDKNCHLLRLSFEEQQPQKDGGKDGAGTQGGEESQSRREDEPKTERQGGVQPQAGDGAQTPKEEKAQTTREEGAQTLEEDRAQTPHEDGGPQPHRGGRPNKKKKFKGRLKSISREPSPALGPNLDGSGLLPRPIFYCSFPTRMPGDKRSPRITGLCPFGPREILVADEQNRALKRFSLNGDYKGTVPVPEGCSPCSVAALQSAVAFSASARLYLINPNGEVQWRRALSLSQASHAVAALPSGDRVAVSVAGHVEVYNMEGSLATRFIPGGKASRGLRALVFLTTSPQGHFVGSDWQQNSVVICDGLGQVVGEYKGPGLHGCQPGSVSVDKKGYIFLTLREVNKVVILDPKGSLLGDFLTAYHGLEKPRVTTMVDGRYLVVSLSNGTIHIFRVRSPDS
Outline: as §1

GRSF1 = molecular target: T4, GRSF1 (UniProt Q12849)
T4 sequence: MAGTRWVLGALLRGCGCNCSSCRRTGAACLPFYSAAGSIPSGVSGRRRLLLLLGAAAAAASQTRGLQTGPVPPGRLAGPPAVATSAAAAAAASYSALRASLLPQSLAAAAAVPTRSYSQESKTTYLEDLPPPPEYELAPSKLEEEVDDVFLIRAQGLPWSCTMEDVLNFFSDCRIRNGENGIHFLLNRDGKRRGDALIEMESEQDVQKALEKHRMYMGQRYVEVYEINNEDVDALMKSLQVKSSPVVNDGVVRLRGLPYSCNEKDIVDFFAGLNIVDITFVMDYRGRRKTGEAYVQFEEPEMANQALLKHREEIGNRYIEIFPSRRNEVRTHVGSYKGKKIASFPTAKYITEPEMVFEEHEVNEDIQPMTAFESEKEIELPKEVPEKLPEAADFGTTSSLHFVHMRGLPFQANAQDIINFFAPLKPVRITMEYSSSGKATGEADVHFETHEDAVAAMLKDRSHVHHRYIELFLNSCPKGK
Outline: as §1

ZNFX1 = ZNFX1 (UniProt Q9P2E3)
Outline: as §1

Sequence of ZNFX1 (Q9P2E3 whole entry): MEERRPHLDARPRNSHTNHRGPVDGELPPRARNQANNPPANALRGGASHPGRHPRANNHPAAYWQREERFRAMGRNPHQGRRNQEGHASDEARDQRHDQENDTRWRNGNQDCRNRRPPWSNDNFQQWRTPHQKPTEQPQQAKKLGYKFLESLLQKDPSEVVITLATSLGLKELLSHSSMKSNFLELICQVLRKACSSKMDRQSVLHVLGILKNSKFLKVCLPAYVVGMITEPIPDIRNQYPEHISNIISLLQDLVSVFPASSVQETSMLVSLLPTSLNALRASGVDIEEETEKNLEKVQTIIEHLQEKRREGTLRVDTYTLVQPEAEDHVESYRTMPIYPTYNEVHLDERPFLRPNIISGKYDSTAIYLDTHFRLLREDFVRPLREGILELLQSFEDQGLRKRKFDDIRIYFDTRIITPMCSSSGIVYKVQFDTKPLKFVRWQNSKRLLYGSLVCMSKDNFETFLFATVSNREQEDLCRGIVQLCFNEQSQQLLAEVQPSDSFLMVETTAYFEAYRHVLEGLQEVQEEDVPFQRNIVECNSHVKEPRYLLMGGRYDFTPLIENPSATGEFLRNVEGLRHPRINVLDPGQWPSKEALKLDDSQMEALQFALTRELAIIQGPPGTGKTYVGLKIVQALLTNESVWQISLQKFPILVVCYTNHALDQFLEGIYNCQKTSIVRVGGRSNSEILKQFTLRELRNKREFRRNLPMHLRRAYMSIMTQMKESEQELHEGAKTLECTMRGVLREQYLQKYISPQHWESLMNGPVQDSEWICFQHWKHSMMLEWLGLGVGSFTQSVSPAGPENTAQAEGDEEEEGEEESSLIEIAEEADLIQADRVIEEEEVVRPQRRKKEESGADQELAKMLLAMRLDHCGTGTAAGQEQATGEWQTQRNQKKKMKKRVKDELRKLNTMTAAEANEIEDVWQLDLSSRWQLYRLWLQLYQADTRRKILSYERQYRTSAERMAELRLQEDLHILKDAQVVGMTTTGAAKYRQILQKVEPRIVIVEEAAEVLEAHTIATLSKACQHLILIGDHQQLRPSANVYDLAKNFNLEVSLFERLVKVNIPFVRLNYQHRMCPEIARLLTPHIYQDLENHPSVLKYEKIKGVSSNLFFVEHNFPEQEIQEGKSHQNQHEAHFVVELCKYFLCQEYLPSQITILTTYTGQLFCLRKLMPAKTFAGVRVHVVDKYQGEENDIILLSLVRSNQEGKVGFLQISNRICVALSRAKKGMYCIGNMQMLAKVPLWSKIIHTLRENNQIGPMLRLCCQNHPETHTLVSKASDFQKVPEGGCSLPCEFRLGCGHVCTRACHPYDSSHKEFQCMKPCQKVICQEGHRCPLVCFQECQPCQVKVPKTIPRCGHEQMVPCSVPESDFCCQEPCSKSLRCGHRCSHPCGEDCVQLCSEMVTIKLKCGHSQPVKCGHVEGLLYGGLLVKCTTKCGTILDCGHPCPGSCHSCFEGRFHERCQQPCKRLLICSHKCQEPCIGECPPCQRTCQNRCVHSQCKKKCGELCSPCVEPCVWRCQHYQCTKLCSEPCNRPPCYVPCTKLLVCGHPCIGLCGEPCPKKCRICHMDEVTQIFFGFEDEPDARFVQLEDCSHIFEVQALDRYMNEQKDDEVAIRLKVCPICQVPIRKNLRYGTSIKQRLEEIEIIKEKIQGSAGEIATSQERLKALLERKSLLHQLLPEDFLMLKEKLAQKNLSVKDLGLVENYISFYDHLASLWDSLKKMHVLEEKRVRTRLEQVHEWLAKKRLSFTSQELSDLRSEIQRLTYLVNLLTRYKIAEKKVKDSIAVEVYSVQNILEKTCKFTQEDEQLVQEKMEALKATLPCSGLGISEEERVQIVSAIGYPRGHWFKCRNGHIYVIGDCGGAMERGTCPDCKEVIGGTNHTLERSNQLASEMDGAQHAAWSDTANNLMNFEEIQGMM
Sequence of SRRM2 (Q9UQ35 whole entry): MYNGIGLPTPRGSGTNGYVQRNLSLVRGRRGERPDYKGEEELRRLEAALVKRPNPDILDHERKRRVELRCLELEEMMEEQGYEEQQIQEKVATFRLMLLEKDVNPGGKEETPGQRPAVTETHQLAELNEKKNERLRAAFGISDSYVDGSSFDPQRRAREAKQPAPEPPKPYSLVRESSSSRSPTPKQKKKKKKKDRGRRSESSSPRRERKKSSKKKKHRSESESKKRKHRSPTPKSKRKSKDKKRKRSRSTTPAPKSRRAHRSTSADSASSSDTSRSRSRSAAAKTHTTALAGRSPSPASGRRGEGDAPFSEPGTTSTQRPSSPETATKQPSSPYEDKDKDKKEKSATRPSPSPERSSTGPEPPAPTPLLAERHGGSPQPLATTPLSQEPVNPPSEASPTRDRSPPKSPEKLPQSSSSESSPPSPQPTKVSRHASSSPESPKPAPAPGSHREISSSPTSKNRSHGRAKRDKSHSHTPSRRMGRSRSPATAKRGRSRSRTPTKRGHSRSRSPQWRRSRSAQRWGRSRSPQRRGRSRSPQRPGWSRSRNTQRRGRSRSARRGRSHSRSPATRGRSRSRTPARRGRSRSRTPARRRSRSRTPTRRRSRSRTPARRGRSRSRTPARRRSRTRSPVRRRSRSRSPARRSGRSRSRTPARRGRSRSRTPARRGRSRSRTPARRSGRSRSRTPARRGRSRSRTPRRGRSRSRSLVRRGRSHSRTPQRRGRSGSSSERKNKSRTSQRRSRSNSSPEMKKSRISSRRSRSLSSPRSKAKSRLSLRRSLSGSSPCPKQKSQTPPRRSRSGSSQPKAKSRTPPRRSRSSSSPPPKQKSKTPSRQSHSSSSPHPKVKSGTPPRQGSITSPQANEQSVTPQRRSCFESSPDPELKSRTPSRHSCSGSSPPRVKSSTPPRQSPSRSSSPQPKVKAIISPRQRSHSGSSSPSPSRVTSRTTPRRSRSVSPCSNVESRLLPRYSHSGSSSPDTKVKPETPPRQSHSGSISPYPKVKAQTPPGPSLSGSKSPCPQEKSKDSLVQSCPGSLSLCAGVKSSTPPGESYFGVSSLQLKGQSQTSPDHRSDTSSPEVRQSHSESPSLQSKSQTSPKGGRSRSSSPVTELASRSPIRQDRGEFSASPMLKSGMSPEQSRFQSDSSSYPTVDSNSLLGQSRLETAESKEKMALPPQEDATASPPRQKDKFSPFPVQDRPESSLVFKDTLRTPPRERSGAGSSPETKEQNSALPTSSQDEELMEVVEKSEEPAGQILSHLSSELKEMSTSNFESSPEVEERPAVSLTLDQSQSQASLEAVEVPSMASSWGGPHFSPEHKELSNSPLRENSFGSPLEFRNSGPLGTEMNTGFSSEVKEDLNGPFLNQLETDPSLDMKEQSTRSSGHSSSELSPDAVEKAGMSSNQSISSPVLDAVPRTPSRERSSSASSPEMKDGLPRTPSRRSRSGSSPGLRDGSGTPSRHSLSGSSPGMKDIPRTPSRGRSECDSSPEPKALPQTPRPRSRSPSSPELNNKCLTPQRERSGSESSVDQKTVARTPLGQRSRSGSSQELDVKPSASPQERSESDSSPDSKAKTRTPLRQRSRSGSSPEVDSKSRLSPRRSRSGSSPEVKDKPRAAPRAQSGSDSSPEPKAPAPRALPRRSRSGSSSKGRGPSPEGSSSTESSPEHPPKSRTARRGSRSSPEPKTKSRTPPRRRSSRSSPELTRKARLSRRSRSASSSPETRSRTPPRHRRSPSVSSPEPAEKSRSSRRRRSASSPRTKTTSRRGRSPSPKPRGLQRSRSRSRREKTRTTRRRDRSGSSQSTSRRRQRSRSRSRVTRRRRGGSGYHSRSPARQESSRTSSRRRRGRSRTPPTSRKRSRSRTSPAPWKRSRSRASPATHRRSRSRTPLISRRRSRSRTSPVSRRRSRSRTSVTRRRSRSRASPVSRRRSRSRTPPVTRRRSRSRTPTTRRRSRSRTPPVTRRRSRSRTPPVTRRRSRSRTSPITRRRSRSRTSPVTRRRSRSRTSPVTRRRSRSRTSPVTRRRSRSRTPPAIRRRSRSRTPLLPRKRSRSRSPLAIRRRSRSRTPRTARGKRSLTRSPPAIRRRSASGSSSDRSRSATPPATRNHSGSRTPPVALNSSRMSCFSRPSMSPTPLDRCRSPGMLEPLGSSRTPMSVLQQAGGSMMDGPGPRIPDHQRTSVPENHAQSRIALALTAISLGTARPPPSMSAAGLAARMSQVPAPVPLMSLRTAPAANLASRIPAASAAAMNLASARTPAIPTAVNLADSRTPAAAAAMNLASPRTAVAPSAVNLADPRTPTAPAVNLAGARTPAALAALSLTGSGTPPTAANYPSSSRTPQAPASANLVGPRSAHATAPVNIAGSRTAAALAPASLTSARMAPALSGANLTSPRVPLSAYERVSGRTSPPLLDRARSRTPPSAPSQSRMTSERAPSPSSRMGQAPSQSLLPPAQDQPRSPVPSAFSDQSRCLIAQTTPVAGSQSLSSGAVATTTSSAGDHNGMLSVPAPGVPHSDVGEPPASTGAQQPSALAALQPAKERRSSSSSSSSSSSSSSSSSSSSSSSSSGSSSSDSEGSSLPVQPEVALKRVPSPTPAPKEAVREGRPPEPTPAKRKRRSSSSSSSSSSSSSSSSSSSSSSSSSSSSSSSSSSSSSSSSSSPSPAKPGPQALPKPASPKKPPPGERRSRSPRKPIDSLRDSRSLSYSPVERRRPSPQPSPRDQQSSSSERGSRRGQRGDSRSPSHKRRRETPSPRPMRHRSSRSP
Sequence of U2AF2 (P26368 whole entry): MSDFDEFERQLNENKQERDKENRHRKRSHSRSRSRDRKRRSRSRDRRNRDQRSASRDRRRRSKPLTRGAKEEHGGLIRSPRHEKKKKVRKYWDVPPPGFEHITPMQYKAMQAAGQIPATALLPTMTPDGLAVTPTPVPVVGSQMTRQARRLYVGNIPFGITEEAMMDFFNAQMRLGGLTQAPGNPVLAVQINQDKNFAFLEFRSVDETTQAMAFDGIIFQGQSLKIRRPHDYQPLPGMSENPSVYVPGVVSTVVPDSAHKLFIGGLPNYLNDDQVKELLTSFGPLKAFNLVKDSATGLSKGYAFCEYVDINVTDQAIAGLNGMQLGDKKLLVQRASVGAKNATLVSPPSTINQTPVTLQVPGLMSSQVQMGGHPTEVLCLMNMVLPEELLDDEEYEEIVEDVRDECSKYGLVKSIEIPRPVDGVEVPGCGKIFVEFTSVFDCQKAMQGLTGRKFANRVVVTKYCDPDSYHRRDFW

In the case of AAUAAA, the Kd (PINX1) is reported as 360 nM, the Kd (SRRM2) is reported as 367 nM and the Kd (TSNAX) is reported as 5.96 nM. It also gave a Kd (U2AF2) of 106 nM.
With CUGUCCU the Kd (IGF2BP1) was 1240 nM, the Kd (MRPL38) was 40.7 nM and the Kd (MRPL17) was 20.4 nM. It also gave a Kd (RPS19) of 69.9 nM and a Kd (MRPL21) of 57.2 nM.
With UAUUUAU the Kd (MRPS25) was 12.4 nM, the Kd (MRPS28) was 15.9 nM and the Kd (TRIM56) was 2880 nM. The Kd (GRSF1) was 3.42 µM and the Kd (ZNFX1) was 374 nM.
